Test results: patent US20200299342A1

Key:
[1] = biological target: Skp1tr-F-box^Fbw7 complex (human) (UniProt P63208); assay: SPR, complex immobilised, Cul1 NTD injected
[2] = biological target: Skp1tr-F-box^Fbw7 complex (human) (UniProt P63208); assay: SPR
Target sequence in this assay (P63208 other isoform, or with tags, fused parts or gaps, chain 1 of 2): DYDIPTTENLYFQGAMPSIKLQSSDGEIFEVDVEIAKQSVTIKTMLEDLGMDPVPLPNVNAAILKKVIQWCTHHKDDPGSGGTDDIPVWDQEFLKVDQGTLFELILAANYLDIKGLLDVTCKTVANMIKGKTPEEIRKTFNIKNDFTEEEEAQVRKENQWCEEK
Target sequence in this assay (Q969H0 other isoform, or with tags, fused parts or gaps, chain 2 of 2, further chain): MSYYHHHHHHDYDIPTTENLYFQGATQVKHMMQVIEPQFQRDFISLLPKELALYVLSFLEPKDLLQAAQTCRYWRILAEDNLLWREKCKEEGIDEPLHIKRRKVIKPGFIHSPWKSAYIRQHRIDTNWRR

[3] = biological target: Skp1tr-F-box^Fbw7 complex (human) (UniProt P63208); assay: ELISA
Target sequence in this assay (P63208 other isoform, or with tags, fused parts or gaps, chain 1 of 2): as the sequence (P63208 other isoform, or with tags, fused parts or gaps, chain 1 of 2) above
Target sequence in this assay (Q969H0 other isoform, or with tags, fused parts or gaps, chain 2 of 2, further chain): as the sequence (Q969H0 other isoform, or with tags, fused parts or gaps, chain 2 of 2, further chain) above

## Cul1 N-terminal domain (NTD) (from UniProt Q13616 1-410)
[1]
  fold weaker than with Skp1-F-box^Fbw7: 1000 fold
[2]
  Kd: 3.6 nM
[3]
  EC50: 11 nM
